Measured values from publication doi:10.1101/2021.02.05.429900.
One block for each substance: values may come before it.

What was measured:
Experiment in all cases: FRET or BRET
[1] = target: Gβ3 with cpVenus-Gγ9 (Gβγ of the G13 BRET sensor) (UniProt P16520)
[2] = target: cpVenus-tagged Gβγ of the G15 BRET sensor (UniProt P62873)
[3] = target: cpVenus-tagged Gβγ of the Gs BRET sensor (UniProt P62873)

Sequence of UniProt P16520 (P16520 whole entry, chain 1 of 2): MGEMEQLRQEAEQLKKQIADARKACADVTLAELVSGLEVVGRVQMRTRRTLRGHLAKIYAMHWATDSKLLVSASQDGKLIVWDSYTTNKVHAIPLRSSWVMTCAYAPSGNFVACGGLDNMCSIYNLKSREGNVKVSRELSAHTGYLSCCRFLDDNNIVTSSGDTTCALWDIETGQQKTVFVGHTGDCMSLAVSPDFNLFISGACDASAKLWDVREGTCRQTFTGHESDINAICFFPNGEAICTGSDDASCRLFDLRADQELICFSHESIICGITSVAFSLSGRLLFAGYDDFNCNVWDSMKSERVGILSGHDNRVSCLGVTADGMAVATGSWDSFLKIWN
Sequence of UniProt P16520 (O14610 whole entry, chain 2 of 2, further chain): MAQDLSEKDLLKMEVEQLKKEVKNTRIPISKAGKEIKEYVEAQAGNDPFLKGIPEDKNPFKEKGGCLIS

amplitude of the BRET response (ΔBRET) on agonist activation of TBXA2R [1]: -35%
Substance: Gα13-Nluc (G13 BRET sensor) (from UniProt Q14344 1-377) (natural protein)

amplitude of the BRET response (ΔBRET) on agonist activation of TBXA2R [2]: -10%
Substance: Nluc-tagged Gα15 (G15 BRET sensor) (from UniProt P30679 1-374) (natural protein)

amplitude of the BRET response (ΔBRET) on agonist activation of β2AR [3]: -10%
Substance: Nluc-tagged Gαs (Gs BRET sensor) (from UniProt P63092 1-394) (natural protein)
